{"source": "patent US20070192884A1", "key": {"[1]": {"molecular_target": "TAT-038 as carried by human tumor cell lines (H1299, PC-3, K562, HL-60) (human) (UniProt P15144)", "test": "flow cytometry, PC3 human tumor cells"}, "[2]": {"molecular_target": "TAT-038 as carried by human tumor cell lines (H1299, PC-3, K562, HL-60) (human) (UniProt P15144)", "test": "flow cytometry, PC-3 human tumor cells"}, "[3]": {"molecular_target": "TAT-038 (full-length, cloned from human placenta cDNA, expressed from phCMV1-TAT-038 in stable 293G and BaF3 cells) (human) (UniProt P15144)", "test": "flow cytometry, BaF3 cells stably expressing TAT-038 (BAF3 ANPEP)"}, "[4]": {"molecular_target": "TAT-038 as carried by human tumor cell lines (H1299, PC-3, K562, HL-60) (human) (UniProt P15144)", "test": "flow cytometry, K562 human tumor cells"}, "[5]": {"molecular_target": "TAT-038 as carried by human tumor cell lines (H1299, PC-3, K562, HL-60) (human) (UniProt P15144)", "test": "flow cytometry, H1299 human tumor cells"}, "[6]": {"molecular_target": "TAT-038 (full-length, cloned from human placenta cDNA, expressed from phCMV1-TAT-038 in stable 293G and BaF3 cells) (human) (UniProt P15144)", "test": "flow cytometry, 293G cells stably expressing TAT-038 (293G-ANPEP)"}, "[7]": {"molecular_target": "TAT-038 as carried by human tumor cell lines (H1299, PC-3, K562, HL-60) (human) (UniProt P15144)", "test": "flow cytometry, HL-60 human tumor cells"}}, "note": "Several values for one entry are separate records, joined by “and”; a condition that tells them apart may be missing. Equal values may be shown once.", "data": [{"substance": "Mouse monoclonal antibody WM15 (BD Pharmingen, cat#555393)", "values": [{"measurement": "geometric mean fluorescence", "setting": "[1]", "value": 125}, {"measurement": "geometric mean fluorescence", "setting": "[2]", "value": 47}, {"measurement": "geometric mean fluorescence", "setting": "[3]", "value": 59.3}, {"measurement": "geometric mean fluorescence", "setting": "[4]", "value": "7 and 9"}, {"measurement": "geometric mean fluorescence", "setting": "[5]", "value": 4}, {"measurement": "geometric mean fluorescence", "setting": "[6]", "value": 221}, {"measurement": "geometric mean fluorescence", "setting": "[7]", "value": 23}]}]}
